In the supplement of paper PMC9112550, “Optimization of the antimicrobial peptide Bac7 by deep mutational scanning” (BMC Biology, 2022):

Tested on: Escherichia coli TOP10
Test: shrunken log2 fold change of peptide-encoding DNA abundance (4.5 h post-induction vs induction); higher = less antimicrobial activity (less host growth inhibition)
Details: time post-induction: 4.5 h; library: site-saturation at positions 5, 18, 19, 20
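Also: peptides expressed intracellularly from a pBAD plasmid library in pooled LB shake-flask culture, induced with 0.3% L-arabinose, DNA abundance read by NGS, three biological replicates, DESeq2 with apeglm shrinkage.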

Sequence: RRIRRRPPRLPRPRPRPRCYPRP
- shrunken log2 fold change: 0.00798

Sequence: RRIRERPPRLPRPRPRPTHCPRP
- shrunken log2 fold change: -0.115

Sequence: RRIRMRPPRLPRPRPRPQFSPRP
- shrunken log2 fold change: 0.0281

Sequence: RRIRYRPPRLPRPRPRPYCMPRP
- shrunken log2 fold change: -0.918

Sequence: RRIRYRPPRLPRPRPRPEFHPRP
- shrunken log2 fold change: 0.00393

Sequence: RRIRHRPPRLPRPRPRPNWDPRP
- shrunken log2 fold change: -0.332

Sequence: RRIRHRPPRLPRPRPRPWMLPRP
- shrunken log2 fold change: -0.0885

Sequence: RRIRLRPPRLPRPRPRPHWAPRP
- shrunken log2 fold change: -0.177

Sequence: RRIRSRPPRLPRPRPRPWIYPRP
- shrunken log2 fold change: -0.187

Sequence: RRIRFRPPRLPRPRPRPNGRPRP
- shrunken log2 fold change: -0.123

Sequence: RRIRTRPPRLPRPRPRPNVCPRP
- shrunken log2 fold change: 0.128

Sequence: RRIRFRPPRLPRPRPRPHYNPRP
- shrunken log2 fold change: -0.786

Sequence: RRIRGRPPRLPRPRPRPIRYPRP
- shrunken log2 fold change: -0.0811

Sequence: RRIRDRPPRLPRPRPRPHEQPRP
- shrunken log2 fold change: -0.0062

Sequence: RRIRFRPPRLPRPRPRPFHQPRP
- shrunken log2 fold change: -0.192

Sequence: RRIRKRPPRLPRPRPRPIICPRP
- shrunken log2 fold change: -0.0679

Sequence: RRIRDRPPRLPRPRPRPIDWPRP
- shrunken log2 fold change: 0.129

Sequence: RRIRYRPPRLPRPRPRPAQDPRP
- shrunken log2 fold change: 0.188

Sequence: RRIRCRPPRLPRPRPRPFFCPRP
- shrunken log2 fold change: -0.132

Sequence: RRIRTRPPRLPRPRPRPQAVPRP
- shrunken log2 fold change: -0.111

Sequence: RRIRKRPPRLPRPRPRPVQEPRP
- shrunken log2 fold change: 0.0683

Sequence: RRIRQRPPRLPRPRPRPSWQPRP
- shrunken log2 fold change: -0.0449

Sequence: RRIRARPPRLPRPRPRPFAMPRP
- shrunken log2 fold change: 0.236

Sequence: RRIRNRPPRLPRPRPRPKYPPRP
- shrunken log2 fold change: -0.137

Sequence: RRIRQRPPRLPRPRPRPCVCPRP
- shrunken log2 fold change: -0.0231

Sequence: RRIRPRPPRLPRPRPRPANKPRP
- shrunken log2 fold change: -0.267

Sequence: RRIRERPPRLPRPRPRPEIQPRP
- shrunken log2 fold change: 0.422

Sequence: RRIRQRPPRLPRPRPRPFKFPRP
- shrunken log2 fold change: -0.00873

Sequence: RRIRPRPPRLPRPRPRPMKVPRP
- shrunken log2 fold change: -0.0686

Sequence: RRIRHRPPRLPRPRPRPWWQPRP
- shrunken log2 fold change: 0.00354

Sequence: RRIRTRPPRLPRPRPRPRISPRP
- shrunken log2 fold change: -0.106

Sequence: RRIRMRPPRLPRPRPRPTLEPRP
- shrunken log2 fold change: 0.259

Sequence: RRIRKRPPRLPRPRPRPHARPRP
- shrunken log2 fold change: 0.709

Sequence: RRIRVRPPRLPRPRPRPSHPPRP
- shrunken log2 fold change: -0.852

Sequence: RRIRMRPPRLPRPRPRPQPMPRP
- shrunken log2 fold change: 0.838

Sequence: RRIRERPPRLPRPRPRPVTIPRP
- shrunken log2 fold change: -0.233

Sequence: RRIRMRPPRLPRPRPRPFLWPRP
- shrunken log2 fold change: 0.0175

Sequence: RRIRHRPPRLPRPRPRPIWSPRP
- shrunken log2 fold change: -0.085

Sequence: RRIRDRPPRLPRPRPRPFIHPRP
- shrunken log2 fold change: -0.572

Sequence: RRIRGRPPRLPRPRPRPNKVPRP
- shrunken log2 fold change: 0.0962

Sequence: RRIRCRPPRLPRPRPRPVLRPRP
- shrunken log2 fold change: 0.183

Sequence: RRIRFRPPRLPRPRPRPHFWPRP
- shrunken log2 fold change: -0.124

Sequence: RRIRTRPPRLPRPRPRPPGSPRP
- shrunken log2 fold change: 0.00863

Sequence: RRIRGRPPRLPRPRPRPHSFPRP
- shrunken log2 fold change: 2.05

Sequence: RRIRRRPPRLPRPRPRPAFQPRP
- shrunken log2 fold change: 1.62

Sequence: RRIRYRPPRLPRPRPRPNTKPRP
- shrunken log2 fold change: -0.0891

Sequence: RRIRHRPPRLPRPRPRPAETPRP
- shrunken log2 fold change: -0.074

Sequence: RRIRDRPPRLPRPRPRPAICPRP
- shrunken log2 fold change: 0.391

Sequence: RRIRSRPPRLPRPRPRPQDRPRP
- shrunken log2 fold change: -0.0318

Sequence: RRIRIRPPRLPRPRPRPAYTPRP
- shrunken log2 fold change: -1.41
